Measurements as given in patent publication US20120276102A1 (Pfizer, published 2012).
Numbering of substitutions follows the chain as printed. Each block holds one binder with its values, some of them ahead of it.

Tests used:
[1] = target: T1, murine IL-21R extracellular domain His-Flag fusion protein (murine, UniProt Q9JHX3 20-237); assay: competition ELISA: scFv mixed with biotinylated murine IL-21R-H/F, added to plate-bound 18A5 IgG (competitor); captured receptor detected with HRP-streptavidin, A450
T1 construct: Biotinylated in the ELISAs; also called mIL-21R-H/F; murine IL-21R-H/F
Description: Blocked plates were washed 3× with PBS, and 50 μl/well of scFv/IL-21R mixtures were transferred to the appropriate plates and incubated for 1 hr at RT. Plates were washed 5× with PBS prior to the addition of a 1:6000 dilution of horseradish peroxidase-conjugated streptavidin (Southern Biotech, Birmingham, Ala.) secondary antibody to detect bound biotinylated mIL-21R-H/F. Plates were then incubated for 1 hr at RT and washed 7× with PBS. Signal was developed using 3,3′,5,5′-tetramethylbenzidine (TMB), the reaction stopped with H₂SO₄, and the absorbance read at 450 nm on an ENVISION™ plate reader (Perkin Elmer).

[2] = target: murine IL-21 (murine, UniProt Q9ES17 18-146); assay: cell-based or functional assay
[3] = target: T2, human complement component C1q (human, UniProt P02745 23-245; P02746 28-253; P02747 29-245); assay: C1q ELISA, antibody coated at 5 µg/ml, human serum 1:50
T2 construct: Native C1q in diluted human serum
Description: In order to determine whether cell-surface binding by anti-IL-21R antibodies is likely to lead to complement-dependent cytotoxicity (CDC), the antibodies were tested for their ability to bind to the complement component C1q in an ELISA. […] Diluted antibodies (100 μl) were coated onto a COSTAR® high-binding ELISA plate (Corning Life Sciences, Lowell, Mass.) overnight at 4° C. Plates were washed 3× with PBS/Tween-20 and blocked with 200 μl of blocking buffer (0.1 M NaPO₄, 0.1 M NaCl, 0.1% gelatin, 0.01% Tween) for 1 hr at RT. Human serum previously determined to contain C1q (Quidel, San Diego, Calif.) was diluted 1:50 in PBS. After 1 hr of blocking, plates were washed and 100 μl of diluted serum was added to each well and incubated for 2 hr at RT on a shaker. Following three washes, 100 μl A of 0.1 μg/ml chicken polyclonal anti-human C1q antibody (AbCam, Cambridge, Mass.) was added to each well and incubated for 1 hr at RT. Plates were again washed and incubated with 100 μA of a rabbit polyclonal antibody to chicken Ig-Y—HRP diluted 1:4000 (AbCam) for 1 hr at RT. Plates were washed and developed with TMB for 5 min, followed by 50 μA of 1 M H₂SO₄ to stop the reaction, and then read at 450 nm.

[4] = target: T3, rat IL-21R expressed on cells (rat); assay: cell-based ELISA on CHO cells transiently expressing rat IL-21R; HRP anti-human IgG, A450
T3 construct: whole, on cells
Description: (§1) FIG. 6(a-l) depicts the binding of 21 anti-IL-21R IgGs to CHO cells transiently expressing human IL-21R (FIGS. 6a-c), rat IL-21R (FIGS. 6d-f), cynomolgus monkey IL-21R (FIGS. 6g-i), and human gamma common chain (FIGS. 6j-1). CHO cells were transiently transfected with IL-21R or the control gamma common chain, and binding was detected with HRP-conjugated anti-human IgG in a cell-based ELISA.
(§2) A subset of binding proteins was tested for binding to rat, cynomolgus monkey, human IL-21R, or human IL-2R-γ common subunit expressed transiently on the surfaces of CHO-PA-Dukx cells. Cells were transfected 48 hr prior to the assay. On the day of the assay, cells were washed gently 5× in PBS containing 0.9 mM CaCl₂ and 0.45 mM MgCl₂ (PBS/CaMg) on an automated plate washer (Titertek, Huntsville, Ala.), and blocked for 1 hr at RT in PBS/CaMg/5% nonfat dry milk. Conditioned media from transiently expressed anti-IL-21R IgGs were serially diluted in blocking buffer and added to the cells in the blocked plates for 1 hr at RT. Cells were washed 5× with PBS/CaMg and then incubated with horseradish peroxidase-conjugated anti-human IgG for 1 hr at RT. Cells were then washed 10× in PBS/CaMg and all of the wash buffer was removed. Cells were incubated with 100 μl TMB until the color reaction reached saturation, stopped with 100 μl of 0.18 M H₂SO₄, and read at A450 on a Perkin Elmer ENVISION™ plate reader.

[5] = target: T4, human IL-21R expressed on cells (human, UniProt Q9HBE5 20-538); assay: cell-based ELISA on CHO cells transiently expressing human IL-21R; HRP anti-human IgG, A450
T4 construct: also called human IL-21R-BaF3; human IL-21R-TF1
Description: as §1, §2

[6] = target: T5, human IL-13-His/FLAG (human, UniProt P35225 35-146, limits assumed); assay: SPR, Ab captured
T5 construct: Unrelated His/FLAG-tagged control; also called human IL-13-H/F
Description: (§3) The specificity of binding of a subset of transiently expressed anti-IL-21R binding proteins (here antibodies) was tested on a BIACORE™ 2000 surface plasmon resonance instrument. Anti-human-IgG, anti-murine immunoglobulin antibodies, and murine IL-21R-H/F were immobilized onto a research-grade carboxymethyl-dextran chip (CM5) using standard amine coupling. The sensor chip surface was activated with EDC/NHS for 7 min at a flow rate of 20 μl/min. The first flow cell was used as reference surface to correct for bulk refractive index, matrix effects, and nonspecific binding. […] Remaining activated groups were blocked with 1.0 M ethanolamine (pH 8.0). The molecular weights of the anti-human IgG and the anti-murine IgG were both 150 kD, and the molecular weight of the IL-21R monomer was 27 kD.
(§4) Conditioned media containing anti-IL-21R antibodies and antibody controls (murine anti-human IL-2Rβ and murine anti-human IL-4R(R&D Systems, Minneapolis, Minn.); human anti-human IL-13 (Wyeth, Cambridge, Mass.)) were diluted in HBS/EP buffer supplemented with 0.2% bovine serum and injected onto all four flow cells of the BIACORE™ chip, capturing 500-700 (RU) of antibody on the species-appropriate capture antibody. Following a 5 sec washing period, 50 nM solutions of a positive control protein (murine IL-21R-H/F), two human proteins related to IL-21R (human IL-2Rβ and human sIL-4R(R&D Systems)), or an unrelated His/FLAG-tagged protein (human IL-13-H/F) were injected over the captured antibodies on the chip. The association and dissociation phases were monitored for 120 and 180 sec, respectively, followed by two 5 μl injections of glycine (pH 1.5) to regenerate a fully active capturing surface. All binding experiments were done at 25° C. in HBS/EP buffer. Blank and buffer effects were subtracted for each sensorgram using double referencing.

[7] = target: T6, human soluble IL-4R (human, UniProt P24394 26-232, limits assumed); assay: SPR, Ab captured
T6 construct: also called human sIL-4R
Description: as §3, §4

[8] = target: T7, human IL-2Rβ (human, UniProt P14784 27-239); assay: SPR, Ab captured
T7 sequence (looked up): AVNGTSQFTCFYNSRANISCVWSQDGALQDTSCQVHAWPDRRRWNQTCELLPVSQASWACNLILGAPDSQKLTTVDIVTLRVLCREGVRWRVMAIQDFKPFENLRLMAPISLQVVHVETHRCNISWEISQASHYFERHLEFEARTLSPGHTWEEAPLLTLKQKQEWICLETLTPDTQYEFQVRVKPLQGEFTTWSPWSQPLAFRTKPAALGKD
Description: as §3, §4

[9] = target: T4, human IL-21R expressed on cells; assay: cell ELISA, CHO cells
[10] = target: T8, cynomolgus monkey IL-21R expressed on cells (cynomolgus monkey, UniProt G7Q0S8 41-559); assay: cell ELISA, CHO cells
T8 construct: whole, on cells

[11] = target: T9, human gamma (γ) common chain expressed on CHO cells (human, UniProt P31785 23-369); assay: cell ELISA, CHO cells
T9 construct: whole, on cells; Control protein; also called human IL-2R-γ common subunit; human γ-common
T9 sequence (looked up): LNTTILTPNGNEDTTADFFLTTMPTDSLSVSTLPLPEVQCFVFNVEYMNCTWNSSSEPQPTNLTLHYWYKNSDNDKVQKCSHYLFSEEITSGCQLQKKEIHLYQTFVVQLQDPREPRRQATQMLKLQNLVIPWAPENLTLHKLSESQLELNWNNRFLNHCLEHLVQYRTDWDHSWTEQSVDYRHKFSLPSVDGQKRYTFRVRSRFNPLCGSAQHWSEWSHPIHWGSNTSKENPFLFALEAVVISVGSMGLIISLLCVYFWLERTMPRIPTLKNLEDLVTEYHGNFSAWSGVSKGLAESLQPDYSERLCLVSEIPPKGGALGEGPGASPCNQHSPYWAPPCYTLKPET

[12] = target: T3, rat IL-21R expressed on cells; assay: cell ELISA, CHO cells
[13] = target: T4, human IL-21R expressed on cells; assay: cell-based or functional assay
[14] = target: murine IL-21R expressed on cells (murine, UniProt Q9JHX3 20-529); assay: cell-based or functional assay
[15] = target: T9, human gamma (γ) common chain expressed …; assay: cell-based ELISA on CHO cells transiently expressing human gamma common chain; HRP anti-human IgG, A450
Description: as §1, §2

[16] = target: T8, cynomolgus monkey IL-21R expressed on …; assay: cell-based ELISA on CHO cells transiently expressing cynomolgus monkey IL-21R; HRP anti-human IgG, A450
[17] = target: T3, rat IL-21R expressed on cells; assay: cell-based or functional assay

T4 sequence (Q9HBE5 20-538 limits assumed): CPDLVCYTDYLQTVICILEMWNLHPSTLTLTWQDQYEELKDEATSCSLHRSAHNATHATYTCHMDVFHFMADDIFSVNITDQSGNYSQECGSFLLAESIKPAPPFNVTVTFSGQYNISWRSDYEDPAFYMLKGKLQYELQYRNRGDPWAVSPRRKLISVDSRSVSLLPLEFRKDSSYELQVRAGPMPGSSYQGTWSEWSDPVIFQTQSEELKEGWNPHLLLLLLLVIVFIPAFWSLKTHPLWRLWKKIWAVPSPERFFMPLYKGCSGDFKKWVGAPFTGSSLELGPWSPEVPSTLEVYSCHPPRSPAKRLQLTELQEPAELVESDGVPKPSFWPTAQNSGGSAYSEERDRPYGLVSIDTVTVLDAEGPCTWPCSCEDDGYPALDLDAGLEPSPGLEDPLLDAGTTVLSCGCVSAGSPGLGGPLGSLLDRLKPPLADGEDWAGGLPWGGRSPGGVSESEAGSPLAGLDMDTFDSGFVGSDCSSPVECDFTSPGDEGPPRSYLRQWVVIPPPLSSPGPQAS
T5 sequence (P35225 35-146 limits assumed): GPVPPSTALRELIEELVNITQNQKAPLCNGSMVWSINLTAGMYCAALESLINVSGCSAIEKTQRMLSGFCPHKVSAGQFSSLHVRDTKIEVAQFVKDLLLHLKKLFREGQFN
T2 sequence (P02745 23-245, chain 1 of 3): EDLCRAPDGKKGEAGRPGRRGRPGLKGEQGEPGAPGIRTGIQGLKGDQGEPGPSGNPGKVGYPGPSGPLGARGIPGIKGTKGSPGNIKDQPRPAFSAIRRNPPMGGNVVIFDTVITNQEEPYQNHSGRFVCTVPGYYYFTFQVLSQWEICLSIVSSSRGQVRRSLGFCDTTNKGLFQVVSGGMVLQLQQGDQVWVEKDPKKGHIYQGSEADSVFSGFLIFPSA
T2 sequence (P02746 28-253, chain 2 of 3): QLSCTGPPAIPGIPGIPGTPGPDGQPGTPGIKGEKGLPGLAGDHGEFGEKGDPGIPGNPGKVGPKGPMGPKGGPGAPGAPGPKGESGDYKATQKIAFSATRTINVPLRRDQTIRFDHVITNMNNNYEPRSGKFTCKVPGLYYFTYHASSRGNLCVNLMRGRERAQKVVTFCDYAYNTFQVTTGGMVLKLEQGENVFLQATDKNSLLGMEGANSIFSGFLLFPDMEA
T2 sequence (P02747 29-245, chain 3 of 3): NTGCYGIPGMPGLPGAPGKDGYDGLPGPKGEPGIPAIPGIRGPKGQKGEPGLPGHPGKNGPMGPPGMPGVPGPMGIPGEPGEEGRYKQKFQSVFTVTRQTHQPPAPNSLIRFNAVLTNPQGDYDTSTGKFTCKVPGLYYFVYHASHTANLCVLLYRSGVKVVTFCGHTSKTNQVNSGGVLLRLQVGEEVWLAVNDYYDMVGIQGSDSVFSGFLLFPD

B4: AbJ (antibody, IgG1, V domains shown)
VH: QVQLQESGPGLVKPSETLSLTCAVSGYSISSGYYWGWIRQPPGKGLEWIGSISHTGNTYYNPPLKSRVTISVDTSKNQFSLKLSSVTAADTAVYYCARFMGFGRPEYWGQGTLVTVSS
VL: SSELTQDPAVSVALGQTVRITCQGDSLRTYYASWYQQKPGQAPVLVIYGKHKRPSGIPDRFSGSSSGNTASLTITGAQAEDEADYYCNSRDSSGNPHVLFGGGTQLTVL
notes: As for AbA: IgG1/lambda, CDR3 graft, residue limits derived; also called VH3/VLP
EC50 (read off the curve) [4]: ~0.4 nM
EC50 (read off the curve) [5]: ~0.3 nM
binding result [6]: no binding (tested: 50 nM)
binding result [7]: no binding (tested: 50 nM)
binding result [8]: no binding (tested: 50 nM)
A450 (13 nM Ab) [9]: 1.22 A450
A450 (13 nM Ab) [10]: 1.27 A450
A450 (13 nM Ab) [11]: 0.126 A450
A450 (13 nM Ab) [12]: 1.26 A450
Human IL-21R-BaF3 Proliferation IC50 [13]: 0.65 nM
Human IL-21R-TF1 Proliferation IC50 [13]: 4.6 nM
Murine IL-21R-BaF3 Proliferation IC50 [14]: 0.4 nM
binding result [15]: no binding (tested: 13 nM)
EC50 (read off the curve) [16]: ~0.3 nM

B5: AbW (antibody, human IgG1, V domains shown)
VH: B4 VH
VL: B4 VL with N88V, S89T, D91S, S92V, S93K
IC50, rat T cell proliferation, experiment 1 [17]: 159 nM
IC50, rat T cell proliferation, experiment 2 [17]: 94.7 nM

B6: AbV (antibody, human IgG1, V domains shown)
VH: B4 VH
VL: B4 VL with N88V, S89A, D91S, S92V, S93V
IC50, rat T cell proliferation, experiment 1 [17]: 70.5 nM
IC50, rat T cell proliferation, experiment 2 [17]: 59.2 nM

Other lines, results leading:

binding result [1]: binds
B1: 18A5 parent scFv (scFv)
scFv: QVQLQESGPGLVKTSETLSLTCAVSGYSISSGYYWGWIRQPPGKGLEWIGSISHTGNTYYNPPLKSRVTISVDTSKNQFSLKLSSVTAADTAVYYCARGGGISRPEYWGKGTLVTVSSGGGGSGGGGSGGGGSALSSELTQDPPVSVALGQTVTLTCQGDSLRTYYASWYQQKSGQAPILLLYGKHKRPSGIPDRFSGSTSGDTASLTITGAQAEDEADYYCNSRDSSGNPHVLFGGGTQLTVL
notes: scFv format of parental 18A5 (not germlined); different molecule from the 18A5 IgG coated on the plate; also called parental 18A5 scFv; scFv parental clone 18A5

Murine IL-21R-BaF3 Neutralization IC50 [2]: 0.04 nM
B2: murine IL-21R-Fc (Fc fusion, not shown: a dimerising Fc or GST)
chain: not shown

binding result [3]: no binding
B3: AbX (antibody, human IgG1)
VH: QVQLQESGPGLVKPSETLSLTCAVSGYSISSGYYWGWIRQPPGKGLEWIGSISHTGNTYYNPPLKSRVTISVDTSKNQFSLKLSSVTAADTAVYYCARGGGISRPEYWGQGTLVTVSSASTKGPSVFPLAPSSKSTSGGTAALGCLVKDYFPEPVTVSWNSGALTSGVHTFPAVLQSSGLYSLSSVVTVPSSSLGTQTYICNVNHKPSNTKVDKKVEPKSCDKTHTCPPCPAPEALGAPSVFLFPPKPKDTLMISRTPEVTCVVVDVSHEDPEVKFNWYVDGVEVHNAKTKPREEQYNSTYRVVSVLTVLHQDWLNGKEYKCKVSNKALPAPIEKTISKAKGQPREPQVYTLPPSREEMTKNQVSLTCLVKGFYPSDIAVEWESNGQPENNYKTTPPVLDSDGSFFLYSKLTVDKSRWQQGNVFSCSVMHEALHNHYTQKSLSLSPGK
VL: SSELTQDPAVSVALGQTVRITCQGDSLRTYYASWYQQKPGQAPVLVIYGKHKRPSGIPDRFSGSSSGNTASLTITGAQAEDEADYYCVARSNKGNPHVLFGGGTQLTVLGQPKAAPSVTLFPPSSEELQANKATLVCLISDFYPGAVTVAWKADSSPVKAGVETTTPSKQSNNKYAASSYLSLTPEQWKSHRSYSCQVTHEGSTVEKTVAPTECS
notes: Same variable domains as AbT; residue limits derived as for m29; also called VHPDM/VL9; copies: 2 + 2
